Measurements published in publication doi:10.1101/2023.04.10.536149.

Tests used:
MBP-MafB ΔHis = MBP-MafB ΔHis (Homo sapiens, UniProt Q9Y5Q3 1-323, del131-167); assay: EMSA
MBP-MafB WT [1] = target: T1, MBP-MafB WT (Homo sapiens, UniProt Q9Y5Q3 1-323); assay: EMSA
MBP-MafB WT [2] = target: T1, MBP-MafB WT; assay: competition

B1: IRDye700 MARE EMSA probe (dsDNA)
DNA 1: TGCTGACTCAGCA
DNA 2: TGCTGAGTCAGCA
B1: binds (MBP-MafB ΔHis); binds (MBP-MafB WT [1]).

B2: unlabelled MARE competitor (dsDNA)
DNA 1: TGCTGACTCAGCA
DNA 2: TGCTGAGTCAGCA
B2: binds (MBP-MafB WT [2]).
